Patent publication US20240002531A1 (ONO PHARMACEUTICAL, published 2024)

How the values were obtained:
[1] = target: T1, HER2 peptide p603-622 (amino acids 603 to 622 of human HER2) (human); assay: SPR Biacore, mAb on chip, peptide analyte, 1:1 fit;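 further: where kon or koff could not be resolved by kinetic fitting, Kd comes instead from steady-state equilibrium analysis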
T1 construct: Synthetic peptide; also called wild-type HER2 peptide
T1 peptide: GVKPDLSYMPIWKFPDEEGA

[2] = target: T2, K615A peptide (HER2 603-622 with K615A) (human); assay: SPR Biacore, mAb on chip, peptide analyte, 1:1 fit;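 further: where kon or koff could not be resolved by kinetic fitting, Kd comes instead from steady-state equilibrium analysis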
T2 peptide: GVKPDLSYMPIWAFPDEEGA

[3] = target: T3, D618A peptide (HER2 603-622 with D618A) (human); assay: SPR Biacore, mAb on chip, peptide analyte, 1:1 fit;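 further: where kon or koff could not be resolved by kinetic fitting, Kd comes instead from steady-state equilibrium analysis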
T3 peptide: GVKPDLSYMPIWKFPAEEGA

[4] = target: T4, E620A peptide (HER2 603-622 with E620A) (human); assay: SPR Biacore, mAb on chip, peptide analyte, 1:1 fit;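 further: where kon or koff could not be resolved by kinetic fitting, Kd comes instead from steady-state equilibrium analysis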
T4 peptide: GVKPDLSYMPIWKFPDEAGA

[5] = target: T5, I613A peptide (HER2 603-622 with I613A) (human); assay: SPR Biacore, mAb on chip, peptide analyte, 1:1 fit
T5 construct: also called 1613A
T5 peptide: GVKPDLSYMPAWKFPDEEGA

[6] = target: T6, P606A peptide (HER2 603-622 with P606A) (human); assay: SPR Biacore, mAb on chip, peptide analyte, 1:1 fit
T6 peptide: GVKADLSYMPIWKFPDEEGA

[7] = target: T7, S609A peptide (HER2 603-622 with S609A) (human); assay: SPR Biacore, mAb on chip, peptide analyte, 1:1 fit
T7 peptide: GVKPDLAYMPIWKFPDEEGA

[8] = target: T8, K605A peptide (HER2 603-622 with K605A) (human); assay: SPR Biacore, mAb on chip, peptide analyte, 1:1 fit
T8 peptide: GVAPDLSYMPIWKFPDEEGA

[9] = target: T9, G621A peptide (HER2 603-622 with G621A) (human); assay: SPR Biacore, mAb on chip, peptide analyte, 1:1 fit
T9 peptide: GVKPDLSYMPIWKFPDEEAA

[10] = target: T10, G603A peptide (HER2 603-622 with G603A) (human); assay: SPR Biacore, mAb on chip, peptide analyte, 1:1 fit
T10 peptide: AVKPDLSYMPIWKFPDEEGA

[11] = target: T11, E619A peptide (HER2 603-622 with E619A) (human); assay: SPR Biacore, mAb on chip, peptide analyte, 1:1 fit
T11 peptide: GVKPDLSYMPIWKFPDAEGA

[12] = target: T12, P617A peptide (HER2 603-622 with P617A) (human); assay: SPR Biacore, mAb on chip, peptide analyte, 1:1 fit
T12 peptide: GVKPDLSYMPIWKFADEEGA

[13] = target: T13, M611A peptide (HER2 603-622 with M611A) (human); assay: SPR Biacore, mAb on chip, peptide analyte, 1:1 fit
T13 peptide: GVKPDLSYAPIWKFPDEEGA

[14] = target: T14, V604A peptide (HER2 603-622 with V604A) (human); assay: SPR Biacore, mAb on chip, peptide analyte, 1:1 fit
T14 peptide: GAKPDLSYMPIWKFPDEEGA

[15] = target: T15, L608A peptide (HER2 603-622 with L608A) (human); assay: SPR Biacore, mAb on chip, peptide analyte, 1:1 fit
T15 peptide: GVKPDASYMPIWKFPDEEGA

[16] = target: T16, P612A peptide (HER2 603-622 with P612A) (human); assay: SPR Biacore, mAb on chip, peptide analyte, 1:1 fit
T16 peptide: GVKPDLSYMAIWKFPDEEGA

[17] = target: T17, W614A peptide (HER2 603-622 with W614A) (human); assay: SPR Biacore, mAb on chip, peptide analyte, equilibrium analysis (ka N.D.)
T17 peptide: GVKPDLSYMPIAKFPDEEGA

[18] = target: T2, K615A peptide (HER2 603-622 with K615A); assay: SPR Biacore, mAb on chip, peptide analyte, equilibrium analysis
[19] = target: T5, I613A peptide (HER2 603-622 with I613A); assay: as above
[20] = target: T17, W614A peptide (HER2 603-622 with W614A); assay: as above
[21] = target: T18, F616A peptide (HER2 603-622 with F616A) (human); assay: as above
T18 peptide: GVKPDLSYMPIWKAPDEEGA

[22] = target: T19, HER2-W614A expressed on CHO-K1 cells (human, UniProt P04626 23-1255); assay: flow cytometry on CHO-K1 cells expressing HER2-W614A
T19 construct: also called W614A point mutant; not shown: PA tag at the N terminus; RAP tag and MAP tag at the C terminus

B1: H2Mab-250 antibody (antibody, V domains shown)
VH: EVQLVESGGGLVQPGGSLKLSCAASGFTFSNYGMSWVRQTPDRRLELVATINNNGGGTYYPDSVKGRFTISRDNAKNTLYLQMSSLKSEDTAMYYCTSPGLLWDAWGAGTTVTVSS
VL: not shown
notes: Mouse monoclonal from a hybridoma (immunogen HER2ec made in LN229 cells); also called antibody of the present invention
- Kd [1]: 0.0058 µM
- koff [1]: 0.00037 s⁻¹
- kon [1]: 63900 M⁻¹ s⁻¹
- Kd [2]: 0.336 µM
- koff [2]: 0.00963 s⁻¹
- kon [2]: 28700 M⁻¹ s⁻¹
- Kd [3]: 0.0058 µM
- koff [3]: 0.000432 s⁻¹
- kon [3]: 74500 M⁻¹ s⁻¹
- Kd [4]: 0.00798 µM
- koff [4]: 0.000455 s⁻¹
- kon [4]: 57100 M⁻¹ s⁻¹
- Kd [5]: 0.0939 µM
- koff [5]: 0.00828 s⁻¹
- kon [5]: 88400 M⁻¹ s⁻¹
- Kd [6]: 0.00534 µM
- koff [6]: 0.000393 s⁻¹
- kon [6]: 73600 M⁻¹ s⁻¹
- Kd [7]: 0.00651 µM
- koff [7]: 0.000394 s⁻¹
- kon [7]: 60600 M⁻¹ s⁻¹
- Kd [8]: 0.00645 µM
- koff [8]: 0.000346 s⁻¹
- kon [8]: 53600 M⁻¹ s⁻¹
- Kd [9]: 0.00691 µM
- koff [9]: 0.000399 s⁻¹
- kon [9]: 57800 M⁻¹ s⁻¹
- Kd [10]: 0.00587 µM
- koff [10]: 0.00043 s⁻¹
- kon [10]: 73300 M⁻¹ s⁻¹
- Kd [11]: 0.00629 µM
- koff [11]: 0.000465 s⁻¹
- kon [11]: 73900 M⁻¹ s⁻¹
- Kd [12]: 0.207 µM
- koff [12]: 0.00914 s⁻¹
- kon [12]: 44100 M⁻¹ s⁻¹
- Kd [13]: 0.00745 µM
- koff [13]: 0.000445 s⁻¹
- kon [13]: 59700 M⁻¹ s⁻¹
- Kd [14]: 0.00654 µM
- koff [14]: 0.000399 s⁻¹
- kon [14]: 61000 M⁻¹ s⁻¹
- Kd [15]: 0.00879 µM
- koff [15]: 0.000431 s⁻¹
- kon [15]: 49100 M⁻¹ s⁻¹
- Kd [16]: 0.00954 µM
- koff [16]: 0.000609 s⁻¹
- kon [16]: 63800 M⁻¹ s⁻¹
- Kd [17]: 1050 µM

B2: H2Mab-214 antibody (antibody, V domains shown)
VH: QVTLKESGPGILQPSQTLSLTCSFSGFSLSTSGMGVSWIRQPSGKGLEWLAHIFWDDDKRYNPSLKSRLTISKDTSRNKVFLKITSVDTADTATYYCARRVVATDWYFDVWGAGTTVTVSS
VL: DIVLTQSPASLAVSLGQRATISCRASESVEYYGTTLMQWYQQKPGQPPKLLIYAASKVESGVPARFSGSGSGTDFSLNIHPVEEDDVAMYFCQQSRKVPLTFGAGTKLELKR
notes: as for B1
- Kd [18]: 578 µM
- Kd [19]: 39.3 µM
- Kd [20]: 1.46 µM
- Kd [21]: 410 µM
- binding result [22]: binds
